Reference: US20140295512A1, “Ketol-Acid Reductoisomerases With Improved Performance Properties” (CALIFORNIA INSTITUTE OF TECHNOLOGY, priority 2011, published 2014)
Changes are numbered by the printed parent chain. Names may count otherwise.

B1: Se1_KARI^1AA10: S. exigua KARI variant S61C, S63D, I95T (protein, UniProt D0WGK0 1-342, looked up, variant S61C S63D I95T)
Ketol-acid reductoisomerase …: MSVKTKEKEMAVTILYEQDVDPKVIQGLKVGIIGYGSQGHAHALNLMDSGVDVRVGLREGCSDWKTAEEAGLKVTDMDTAAEEADVIMVLVPDETQPKVYQEHIAAHLKAGNTLAFAHGFNIHYGYIVPPEDVNVIMCAPKGPGHIVRRQFTEGSGVPDLACVQQDATGNAWDIVLSYCWGVGGARSGIIKATFAEETEEDLFGEQAVLCGGLVELVKAGFETLTEAGYPPELAYFECYHEMKMIVDLMYESGIHFMNYSISNTAEYGEYYAGPKVINEQSREAMKEILKRIQDGSFAQEFVDDCNNGHKRLLEQREAINTHPIETTGAQIRSMFSWIKKED
B2: Se1_NKR^2E8-his6: S. exigua KARI variant R58P, S61C, S62P, S63D, I95T (protein, UniProt D0WGK0 1-342, looked up, variant R58P S61C S62P S63D I95T)
Ketol-acid reductoisomerase …: B1 Ketol-acid reductoisomerase … with R58P, S62P
modifications: His6 tag
notes: S. exigua KARI variant R58P, S61C, S62P, S63D, I95T
B3: Se1_KARI^GE11-his6: S. exigua KARI variant G60V (protein, UniProt D0WGK0 1-342, looked up, variant G60V)
Ketol-acid reductoisomerase …: B1 Ketol-acid reductoisomerase … with G60V, C61S, D63S, T95I
modifications: His6 tag
notes: S. exigua KARI variant G60V
B4: Se1_KARI^HF2-his6: S. exigua KARI variant S61C (protein, UniProt D0WGK0 1-342, looked up, variant S61C)
Ketol-acid reductoisomerase …: B1 Ketol-acid reductoisomerase … with D63S, T95I
modifications: His6 tag
notes: S. exigua KARI variant S61C
B5: Se1_NKR^10C2-his6: S. exigua KARI variant R58P, S61C, S62A, S63D, I95T (protein, UniProt D0WGK0 1-342, looked up, variant R58P S61C S62A S63D I95T)
Ketol-acid reductoisomerase …: B1 Ketol-acid reductoisomerase … with R58P, S62A
modifications: His6 tag
notes: S. exigua KARI variant R58P, S61C, S62A, S63D, I95T
B6: Se1_KARI^LE1-his6: S. exigua KARI variant I95V (protein, UniProt D0WGK0 1-342, looked up, variant I95V)
Ketol-acid reductoisomerase …: B1 Ketol-acid reductoisomerase … with C61S, D63S, T95V
modifications: His6 tag
notes: S. exigua KARI variant I95V
B7: Se1_NKR^S61DS63D: S. exigua KARI double aspartic acid variant S61D, S63D (protein, UniProt D0WGK0 1-342, looked up, variant S61D S63D)
Ketol-acid reductoisomerase …: B1 Ketol-acid reductoisomerase … with C61D, T95I
modifications: His6 tag
notes: S. exigua KARI double aspartic acid variant S61D, S63D
B8: Se1_KARI^13G6: S. exigua KARI variant G60V, I95A (protein, UniProt D0WGK0 1-342, looked up, variant G60V I95A)
Ketol-acid reductoisomerase …: B1 Ketol-acid reductoisomerase … with G60V, C61S, D63S, T95A
B9: Se1_KARI^1A8: S. exigua KARI variant G60V, I95V, V99L (protein, UniProt D0WGK0 1-342, looked up, variant G60V I95V V99L)
Ketol-acid reductoisomerase …: B1 Ketol-acid reductoisomerase … with G60V, C61S, D63S, T95V, V99L
B10: Se1_KARI^JB7-his6: S. exigua KARI variant S63Q (protein, UniProt D0WGK0 1-342, looked up, variant S63Q)
Ketol-acid reductoisomerase …: B1 Ketol-acid reductoisomerase … with C61S, D63Q, T95I
modifications: His6 tag
notes: S. exigua KARI variant S63Q

Test: KARI assay of purified S. exigua KARI and variants with NADH (Examples 6-9)
Type: biochemical
Details: not given
Protocol: (§1) S. exigua KARI activity or activities of its variants were assayed kinetically by monitoring the decrease in NADPH or NADH concentration by measuring the change in absorbance at 340 nm. An assay buffer was prepared containing 100 mM potassium phosphate pH 7.0, 1 mM DTT, 2.5 mM (S)-2-acetolactate, and 10 mM MgCl2 (final concentrations in the 1-mL assay, accounting for dilution with enzyme and cofactor). Fifty μL purified enzyme and 930 μL of the assay buffer were placed into a 1-mL cuvette. The reaction was initiated by addition of 20 μL NADPH or NADH (200 μM final concentration) for a general activity assay. Michaelis-Menten constants of the cofactors were determined with varying concentrations of NADPH (200-12 μM final) or NADH (200-6 μM final).
In the case of B1, the “NADH KM value, fold increased versus wild-type” value is reported as 1.3 fold, the “kcat NADH” value is reported as 0.8 s⁻¹ and the “kcat with NADH, fold increase versus wild-type” value is reported as 2 fold. The “kcat/Km ratio NADH/NADPH (cofactor specificity)” value (shortened to “kcat/Km ratio NADH/NADPH”) was 7.1. With B2 the “NADH KM value, fold increased versus wild-type” value was 2 fold, the “kcat NADH” value was 0.4 s⁻¹ and the “kcat/Km ratio NADH/NADPH” value was 46. In the case of B3, the “kcat NADH” value is reported as 1 s⁻¹. In the case of B4, the “kcat NADH” value is reported as 0.45 s⁻¹. For B5, the “kcat NADH” value was 0.27 s⁻¹ and the “kcat/Km ratio NADH/NADPH” value was 14. With B6 the “kcat NADH” value was 0.74 s⁻¹. For B7, the “NADH KM value, fold increased versus wild-type” value was 2.5 fold, the “kcat NADH” value was 1 ± 0.13 s⁻¹ and the “kcat in presence of NADH, fold higher than in presence of NADPH” value was 10 fold. The “kcat/Km ratio NADH/NADPH” value was 78. With B8 the “kcat NADH” value was 0.74 s⁻¹ and the “kcat/Km ratio NADH/NADPH” value was 0.03. In the case of B9, the “kcat NADH” value is reported as 0.65 s⁻¹. With B10 the “kcat NADH” value was 0.69 s⁻¹.

Same assay, conditions: cofactor NADH
In the case of B1, the “U/mg NADH (specific activity)” value is reported as 0.32 U/mg. For B2, the “U/mg NADH (specific activity)” value was 0.16 U/mg. For B3, the “U/mg NADH (specific activity)” value was 0.4 U/mg. With B4 the “U/mg NADH (specific activity)” value was 0.18 U/mg. In the case of B5, the “U/mg NADH (specific activity)” value is reported as 0.11 U/mg. For B6, the “U/mg NADH (specific activity)” value was 0.3 U/mg. With B7 the “U/mg NADH (specific activity)” value was 0.4 ± 0.05 U/mg. In the case of B8, the “U/mg NADH (specific activity)” value is reported as 0.30 U/mg. With B9 the “U/mg NADH (specific activity)” value was 0.26 U/mg. With B10 the “U/mg NADH (specific activity)” value was 0.28 U/mg.

Same assay, conditions: cofactor NADH; listed as 1AA10
For B1, the “U/mg NADH (specific activity)” value was 0.8 U/mg.

Same assay, conditions: cofactor NADH; listed as Se1_KARI^GE11
In the case of B3, the “U/mg NADH (specific activity)” value is reported as 0.40 U/mg.

Same assay, conditions: cofactor NADH; listed as Se1_KARI^LE1
With B6 the “U/mg NADH (specific activity)” value was 0.30 U/mg.

Same assay, conditions: listed as S61D/S63D
In the case of B7, the “kcat NADH” value is reported as 1 s⁻¹.

Same assay, conditions: listed as Se1_KARI^1AA10-his6
For B1, the “kcat/Km ratio NADH/NADPH” value was 7.

Same assay, conditions: listed as Se1_NKR^DD-his6
For B7, the “kcat NADH” value was 1 s⁻¹ and the “kcat/Km ratio NADH/NADPH” value was 76.

Same assay, conditions: read-out: Km for cofactor NADH
B1 showed a Km of 62 µM. Molecule B2 has a Km of 87 µM. For B4, the Km was 43.8 µM. Work on B5 yielded a Km of 250 µM. Molecule B6 has a Km of 19 µM. With B7 the Km was 113 ± 4 µM. For B8, the Km was 34 µM.

Same assay, conditions: specific activity ratio
With B1 the “Ratio NADH/NADPH (U/mg)” value was 1.2. In the case of B2, the “Ratio NADH/NADPH (U/mg)” value is reported as 3.6. For B3, the “Ratio NADH/NADPH (U/mg)” value was 0.48. In the case of B4, the “Ratio NADH/NADPH (U/mg)” value is reported as 0.78. For B5, the “Ratio NADH/NADPH (U/mg)” value was 3.4. For B6, the “Ratio NADH/NADPH (U/mg)” value was 0.8. With B7 the “Ratio NADH/NADPH (U/mg)” value was 9.5. With B8 the “Ratio NADH/NADPH (U/mg)” value was 0.8. For B9, the “Ratio NADH/NADPH (U/mg)” value was 0.8. With B10 the “Ratio NADH/NADPH (U/mg)” value was 0.47.

Same assay, conditions: specific activity ratio; listed as Se1_KARI^GE11
In the case of B3, the “Ratio NADH/NADPH (U/mg)” value is reported as 0.50.

Test: KARI assay of purified S. exigua KARI and variants with NADPH (Examples 6-9)
Type: biochemical
Details: not given
Protocol: as §1
In the case of B1, the “NADPH KM value, fold increased versus wild-type/parent” value is reported as “at least 367 fold”, the “kcat NADPH” value is reported as 0.67 s⁻¹ and the “kcat with NADPH, fold decreased versus wild-type” value is reported as 1.2 fold. With B2 the “NADPH-dependent activity (in words)” value was “virtually abolished” and the “kcat NADPH” value was 0.1 s⁻¹. With B3 the “kcat NADPH” value was 2 s⁻¹. For B4, the “kcat NADPH” value was 0.57 s⁻¹. With B5 the “NADPH-dependent activity (in words)” value was “virtually abolished” and the “kcat NADPH” value was 0.08 s⁻¹. In the case of B6, the “kcat NADPH” value is reported as 1.00 s⁻¹. For B7, the “NADPH KM value, fold increased versus wild-type/parent” value was “more than 800 fold” and the “kcat NADPH” value was 0.1 ± 0.01 s⁻¹. In the case of B8, the “kcat NADPH” value is reported as 0.90 s⁻¹. For B9, the “kcat NADPH” value was 0.79 s⁻¹. In the case of B10, the “kcat NADPH” value is reported as 1.5 s⁻¹.

Same assay, conditions: cofactor NADPH
With B1 the “U/mg NADPH (specific activity)” value was 0.27 U/mg. For B2, the “U/mg NADPH (specific activity)” value was 0.044 U/mg. With B3 the “U/mg NADPH (specific activity)” value was 0.8 U/mg. For B4, the “U/mg NADPH (specific activity)” value was 0.23 U/mg. For B5, the “U/mg NADPH (specific activity)” value was 0.032 U/mg. In the case of B6, the “U/mg NADPH (specific activity)” value is reported as 0.4 U/mg. For B7, the “U/mg NADPH (specific activity)” value was 0.042 ± 0.005 U/mg. With B8 the “U/mg NADPH (specific activity)” value was 0.37 U/mg. With B9 the “U/mg NADPH (specific activity)” value was 0.32 U/mg. With B10 the “U/mg NADPH (specific activity)” value was 0.6 U/mg.

Same assay, conditions: cofactor NADPH; listed as Se1_KARI^LE1
With B6 the “U/mg NADPH (specific activity)” value was 0.40 U/mg.

Same assay, conditions: cofactor NADPH; listed as Se1_NKR^DD-his6
In the case of B7, the “U/mg NADPH (specific activity)” value is reported as 0.04 ± 0.005 U/mg.

Same assay, conditions: listed as S61D/S63D
With B7 the “kcat NADPH” value was 0.1 s⁻¹.

Same assay, conditions: listed as Se1_KARI^1AA10-his6
For B1, the “NADPH KM value, fold increased versus wild-type/parent” value was > 367 fold.

Same assay, conditions: listed as Se1_NKR^DD-his6
For B7, the “kcat NADPH” value was 0.1 s⁻¹.

Same assay, conditions: read-out: Km for cofactor NADPH
With B1 the Km was 367 µM. With B2 the Km was > 1000 µM. In the case of B5, the Km is reported as > 1000 µM. B7 gave a Km of 880 ± 500 µM. In the case of B8, the Km is reported as < 1 µM.
